# Data: article PMC3042367 (Biochemistry, 2010)
# B1: HgNmerA, 1:1 Hg(II) complex of pDU1358 NmerA (domain or fragment, Serratia marcescens (plasmid pDU1358), UniProt P08662 1-69, looked up)
# chain: MTHLKITGMTCDSCAAHVKEALEKVPGVQSAIVSYAKGAAQLALDPGTAPDALTAAVAGLGYKAMLADA
# modifications: also: 1:1 Hg(II) complex bound to Cys11 and Cys14 (CXXC motif)
# Biological target: R831b MerB (organomercurial lyase), unliganded (Serratia marcescens (plasmid R831b), UniProt P77072 1-212)
# Experiment: stopped-flow fluorescence kinetics
# Chain of R831b MerB (organomercurial lyase), unliganded (P77072 whole entry): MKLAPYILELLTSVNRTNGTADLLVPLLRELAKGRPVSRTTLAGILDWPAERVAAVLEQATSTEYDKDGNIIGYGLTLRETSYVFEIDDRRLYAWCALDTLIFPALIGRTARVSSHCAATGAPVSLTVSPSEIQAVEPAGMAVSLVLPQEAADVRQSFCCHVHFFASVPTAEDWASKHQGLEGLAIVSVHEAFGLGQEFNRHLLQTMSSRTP
binder,measurement,value
B1,Kd,660 µM
same,koff,330 s⁻¹
same,kon,500000 M⁻¹ s⁻¹
